Experimental data as given in publication PMC7523099.

How the values were obtained:
[1] = target: SARS-CoV-1 RBD-5GS-1TD0 (SARS-CoV-1 | not stated); assay: SDS-PAGE
[2] = target: SARS-CoV-2 RBD-5GS-1TD0 (SARS-CoV-2 | not stated) (UniProt P0DTC2); assay: SDS-PAGE

“SARS-CoV-1 RBD-5GS-1TD0 (domain or fragment)” was tested, and the stoichiometry N [1] was 3.
“SARS-CoV-2 RBD-5GS-1TD0 (from UniProt P0DTC2 330-532) (domain or fragment)” was tested, and the stoichiometry N [2] was 3.
